The record followed here is US20140255304, “TDP-43 SPECIFIC BINDING MOLECULES” (BIOGEN IDEC INTERNALTIONAL NEUROSCIENCE GMBH, published 2014).

The data set deals with TDP-43 full length (residues 1-414) (Homo sapiens, UniProt Q13148 SEQ:1-414). Put plainly: FP; at least 30-fold higher affinity than for U12 control; 40 mM HEPES, 0.5 M KCl, 0.4 M arginine, pH 7.4, 25 C. To be noted: tags: N-terminal 6xHis-SUMO, expressed in E. coli BL21(DE3) Star; label: 5' TYE fluorophore. The procedure: Equilibrium binding affinities of TDP-43 constructs for RNA were determined using fluorescence polarization. 5′TYETM fluorophore labeled RNA substrates, specific RNA (TYETM-[…]) (SEQ ID NO: 312) and RNA control (TYETM-[…]) (SEQ ID NO: 313) (integrated DNA Technologies), were incubated at a concentration of 5 nM for 30 min at 25° C. with TDP-43 (final concentrations 0 to 20 μM) in incubation buffer as indicated. Fluorescence polarization was measured with the plate reader fluorometer Envision (PerkinElmer) at each concentration of TDP-43 in a 96 well plate format with an excitation at 645 nm and emission at 665. Kds were calculated using the quadratic equation for tight binding (Morrison equation) using Sigmaplot (Systat Software Inc.). […] Stoichiometries were calculated by measuring the intercept of two straight lines, one fit using data points of the partially bound state, and the other using data points of the fully bound state.
The recombinant full-length TDP-43 was monomeric by sedimentation analysis (FIG. 8C) in buffer containing 400 mM arginine.

TDP-43 full length (residues 1-414), sequence (Q13148 whole entry, the tested form may be a part): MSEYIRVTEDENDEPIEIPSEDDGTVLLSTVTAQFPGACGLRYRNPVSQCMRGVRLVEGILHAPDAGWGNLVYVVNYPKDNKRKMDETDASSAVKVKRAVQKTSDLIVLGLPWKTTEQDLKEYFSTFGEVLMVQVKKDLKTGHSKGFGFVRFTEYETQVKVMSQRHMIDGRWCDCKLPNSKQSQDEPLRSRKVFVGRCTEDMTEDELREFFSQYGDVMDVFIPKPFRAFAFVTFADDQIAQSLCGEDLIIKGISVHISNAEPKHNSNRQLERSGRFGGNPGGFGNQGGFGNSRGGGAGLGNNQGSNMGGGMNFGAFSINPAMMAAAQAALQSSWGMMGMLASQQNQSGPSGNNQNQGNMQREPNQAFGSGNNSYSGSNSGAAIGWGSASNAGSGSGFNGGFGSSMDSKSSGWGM

The molecule UGUGUGUGUGUG (ssRNA) [(UG)6 specific RNA] registered a binding signal of at least 30 fold.
